Source: US20190284293A1, “COMBINATION THERAPY WITH ANTI-CD73 ANTIBODIES” (BRISTOL-MYERS SQUIBB COMPANY, priority 2016, published 2019)
Numbering of substitutions follows the chain as printed.

T1: CD32a-H131 (FcgRIIa-H131) (Homo sapiens, UniProt P12318)
T1 sequence (P12318 34-217 limits assumed): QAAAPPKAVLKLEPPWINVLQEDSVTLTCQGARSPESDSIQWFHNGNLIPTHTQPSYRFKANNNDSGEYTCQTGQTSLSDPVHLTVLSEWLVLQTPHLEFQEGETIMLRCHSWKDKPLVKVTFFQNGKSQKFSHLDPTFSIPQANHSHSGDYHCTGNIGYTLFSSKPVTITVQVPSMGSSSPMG

T2: CD32b (FcgRIIb) (Homo sapiens, UniProt P31994)
T2 sequence (P31994 43-310): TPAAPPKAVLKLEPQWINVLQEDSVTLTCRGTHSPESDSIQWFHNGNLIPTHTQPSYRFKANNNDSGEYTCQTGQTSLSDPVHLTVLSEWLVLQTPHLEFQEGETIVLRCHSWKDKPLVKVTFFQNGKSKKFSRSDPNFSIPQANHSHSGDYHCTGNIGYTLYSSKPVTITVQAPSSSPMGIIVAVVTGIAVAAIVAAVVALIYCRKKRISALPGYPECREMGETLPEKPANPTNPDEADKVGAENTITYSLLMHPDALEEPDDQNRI

T3: CD32a-R131 (FcgRIIa-R131) (Homo sapiens, UniProt P12318, H167R)
T3 sequence (P12318 34-217 H167R limits assumed): T1 sequence (P12318 34-217 limits assumed) with H134R

B1: mAb7-IgG2.3G1-AY-V27 (protein)
constant: ASTKGPSVFPLAPCSRSTSESTAALGCLVKDYFPEPVTVSWNSGALTSGVHTFPAVLQSSGLYSLSSVVTVPSSNFGTQTYTCNVDHKPSNTKVDKTVERKSCVECPPCPAPELLGGPSVFLFPPKPKDTLMISRTPEVTCVVVDVEHEDPEVKFNWYVDGVEVHNAKTKPREEQYNSTYRVVSVLTVLHQDWLNGKEYKCKVSNKALPAPIEKTISKAKGQPREPQVYTLPPSREEMTKNQVSLTCLVKGFYPSDIAVEWESNGQPENNYKTTPPVLDSDGSFFLYSKLTVDKSRWQQGNVFSCSVMHEALHNHYTQKSLSLSPGK
modifications: left off: another chain or arm of the molecule
B2: mAb7-IgG2.5G1-AY-V27 (protein)
constant: B1 constant with C14S, S102C
modifications: left off: another chain or arm of the molecule
B3: mAb8-IgG2.5G1-AY-V27 (protein)
constant: B1 constant with C14S, S102C
modifications: left off: another chain or arm of the molecule
B4: mAb12-IgG2.3 (protein)
constant: ASTKGPSVFPLAPCSRSTSESTAALGCLVKDYFPEPVTVSWNSGALTSGVHTFPAVLQSSGLYSLSSVVTVPSSNFGTQTYTCNVDHKPSNTKVDKTVERKSCVECPPCPAPPVAGPSVFLFPPKPKDTLMISRTPEVTCVVVDVSHEDPEVQFNWYVDGVEVHNAKTKPREEQFNSTFRVVSVLTVVHQDWLNGKEYKCKVSNKGLPAPIEKTISKTKGQPREPQVYTLPPSREEMTKNQVSLTCLVKGFYPSDIAVEWESNGQPENNYKTTPPMLDSDGSFFLYSKLTVDKSRWQQGNVFSCSVMHEALHNHYTQKSLSLSPGK
modifications: left off: another chain or arm of the molecule
B5: mAb11-IgG2.5 (protein)
constant: B4 constant with C14S, S102C
modifications: left off: another chain or arm of the molecule
B6: mAb5-IgG2.5 (protein)
constant: B4 constant with C14S, S102C
modifications: left off: another chain or arm of the molecule
B7: mAb8-IgG2.5 (protein)
constant: B4 constant with C14S, S102C
modifications: left off: another chain or arm of the molecule
B8: mAb4-IgG2.5 (protein)
constant: B4 constant with C14S, S102C
modifications: left off: another chain or arm of the molecule
B9: mAb13-IgG2.5 (protein)
constant: B4 constant with C14S, S102C
modifications: left off: another chain or arm of the molecule
B10: mAb7-IgG2.5 (protein)
constant: B4 constant with C14S, S102C
modifications: left off: another chain or arm of the molecule
B11: mAb6-IgG2.5 (protein)
constant: B4 constant with C14S, S102C
modifications: left off: another chain or arm of the molecule
B12: mAb13-IgG2.3 (protein)
constant: B4 constant
modifications: left off: another chain or arm of the molecule

Each molecule was assayed against T1, CD32a-H131 (FcgRIIa-H131) (assay: SPR, antibody binding to anti-his Fab captured FcgR-his (% Rmax)). Details: 1 μM antibody.
Description: (§1) The binding of antibodies to Fc gamma receptors (FcγRs or FcgRs) was studied using biosensor technologies including Biacore surface plasmon resonance (SPR) and Fortebio Biolayer Interferometry (BLI). SPR studies were performed on a Biacore T100 instrument (GE Healthcare) at 25° C. The Fab fragment from a murine anti-6×His antibody was immobilized on a CM5 sensor chip using EDC/NHS to a density of −3000 RU. Various his-tagged FcgRs (7 ug/ml) were captured via the C-terminal his-tag using a contact time of 30 s at 10 ul/min, and the binding of 1.0 μM antibody was evaluated in a running buffer of 10 mM NaPO4, 130 mM NaCl, 0.05% p20 (PBS-T) pH 7.1. FcgRs used for these experiments included CD64 (FcgRI), CD32a-H131 (FcgRIIa-H131), CD32a-R131 (FcgRIIa-R131), CD32b (FcgRIIb), CD16a-V158 (FcgRIIIa-V158), CD16b-NA1 (FcgRIIIb-NA1), and CD16B-NA2 (FcgRIIIb-NA2). BLI experiments were performed on a Fortebio Octet RED instrument (Pall, Fortebio) at 25° C. in 10 mM NaPO4, 130 mM NaCl, 0.05% p20 (PBS-T) pH 7.1. Antibodies were captured out of undiluted expression supernatants on protein A coated sensors, followed by the binding of 1 μM hCD32a-H131, hCD32a-R131, hCD32b, hCD16a-V158, or 0.1 μM hCD64 analytes.

% Rmax hCD32a-H131	Molecule
68%	B1
74%	B2
76%	B3
39%	B4
40%	B5
89%	B6
59%	B7
46%	B8
39%	B9
72%	B10
75%	B11
40%	B12

Each molecule was assayed against CD16B-NA2 (FcgRIIIb-NA2) (Homo sapiens, UniProt O75015) in the same assay as above. Details: 1 μM antibody.
Chain of CD16B-NA2 (FcgRIIIb-NA2) (O75015 17-200 limits assumed): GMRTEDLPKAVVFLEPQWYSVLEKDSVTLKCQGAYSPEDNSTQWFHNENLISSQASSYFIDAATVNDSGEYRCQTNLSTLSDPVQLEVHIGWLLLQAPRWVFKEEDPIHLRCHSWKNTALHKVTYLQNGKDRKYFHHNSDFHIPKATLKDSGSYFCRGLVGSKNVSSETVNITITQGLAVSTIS
Description: as §1

% Rmax hCD16B-NA2	Molecule
7%	B1
9%	B2
10%	B3
0%	B4
−1%	B5
1%	B6
0%	B7
0%	B8
−2%	B9
0%	B10
0%	B11
0%	B12

Each molecule was assayed against CD16a-V158 (FcgRIIIa-V158) (Homo sapiens, UniProt P08637, F176V) in the same assay as above. Details: 1 μM antibody.
Chain of CD16a-V158 (FcgRIIIa-V158) (P08637 17-208 F176V limits assumed): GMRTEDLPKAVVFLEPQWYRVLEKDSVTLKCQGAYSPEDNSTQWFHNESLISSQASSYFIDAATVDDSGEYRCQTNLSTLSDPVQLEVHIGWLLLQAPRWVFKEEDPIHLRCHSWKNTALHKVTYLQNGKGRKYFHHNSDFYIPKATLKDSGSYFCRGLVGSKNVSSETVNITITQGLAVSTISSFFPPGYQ
Description: as §1

% Rmax hCD16a-V158	Molecule
26%	B1
32%	B2
33%	B3
1%	B4
0%	B5
4%	B6
2%	B7
1%	B8
0%	B9
2%	B10
2%	B11
1%	B12

The molecules below were run against T2, CD32b (FcgRIIb) in the same assay as above. Details: 1 μM antibody.
Description: as §1

% Rmax hCD32b	Molecule
76%	B1
84%	B2
77%	B3
1%	B4
3%	B5
5%	B6
3%	B7
1%	B8
−2%	B9
2%	B10
4%	B11
1%	B12

These molecules were tested against T3, CD32a-R131 (FcgRIIa-R131) in the same assay as above. Details: 1 μM antibody.
Description: as §1

% Rmax hCD32a-R131	Molecule
92%	B1
89%	B2
79%	B3
7%	B4
13%	B5
26%	B6
14%	B7
8%	B8
4%	B9
19%	B10
17%	B11
7%	B12

What follows are molecules tested against CD64 (FcgRI) (Homo sapiens, UniProt P12314) in the same assay as above. Details: 1 μM antibody.
Chain of CD64 (FcgRI) (P12314 16-374): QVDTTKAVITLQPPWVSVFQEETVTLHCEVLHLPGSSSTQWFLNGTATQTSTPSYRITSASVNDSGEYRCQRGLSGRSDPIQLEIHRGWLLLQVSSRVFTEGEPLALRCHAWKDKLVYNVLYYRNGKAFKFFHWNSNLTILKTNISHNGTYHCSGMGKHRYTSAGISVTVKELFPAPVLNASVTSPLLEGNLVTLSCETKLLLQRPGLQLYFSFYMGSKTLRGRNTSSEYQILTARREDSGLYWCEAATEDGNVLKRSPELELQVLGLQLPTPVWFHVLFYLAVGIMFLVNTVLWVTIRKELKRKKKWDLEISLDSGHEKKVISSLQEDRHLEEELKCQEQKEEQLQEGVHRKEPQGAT
Description: as §1

% Rmax hCD64	Molecule
84%	B1
81%	B2
77%	B3
2%	B4
0%	B5
6%	B6
3%	B7
2%	B8
−2%	B9
4%	B10
3%	B11
2%	B12
